Laboratory results from article PMC2814086 (Molecular Microbiology, 2009).

Target: the molecule itself
Assay: mass spectrometry

B1: MinE-His (wild-type MinE with a His tag, plasmid pSOT13 [PT7::minE-his]) (natural protein, E. coli, UniProt P0A734 1-88, looked up)
chain: MALLDFFLSRKKNTANIAKERLQIIVAERRRSDAEPHYLPQLRKDILEVICKYVQIDPEMVTVQLEQKDGDISILELNVTLPEAEELK
- stoichiometry N: 2
